Laboratory results reported in patent US20250244325A1.

Tests used:
[1] = substrate: S clamp antigen from CSL451 GMP batch TC20-02-08 (sublot VS20200615A) (SARS-CoV-2) (UniProt P0DTC2); experiment: binding kinetics from sensorgrams (FIG. 6); instrument and format not given
[2] = substrate: S clamp antigen from CSL451 GMP batch TC20-02-08 (sublot VS20200615A) (SARS-CoV-2) (UniProt P0DTC2); experiment: kinetics on CM5 chip: anti-mouse Ab, 30B8 captured, CSL451 Sclamp antigen in solution, 1:1 binding; density 7 RU, table row 7
[3] = substrate: S clamp antigen from CSL451 GMP batch TC20-02-08 (sublot VS20200615A) (SARS-CoV-2) (UniProt P0DTC2); experiment: kinetics on CM5 chip: anti-mouse Ab, 30B8 captured, CSL451 Sclamp antigen in solution, 1:1 binding; density 7 RU, table row 8
[4] = substrate: S clamp antigen from CSL451 GMP batch TC20-02-08 (sublot VS20200615A) (SARS-CoV-2) (UniProt P0DTC2); experiment: kinetics on CM5 chip: anti-mouse Ab, 30B8 captured, CSL451 Sclamp antigen in solution, 1:1 binding; density 13 RU, table row 5
[5] = substrate: S clamp antigen from CSL451 GMP batch TC20-02-08 (sublot VS20200615A) (SARS-CoV-2) (UniProt P0DTC2); experiment: kinetics on CM5 chip: anti-mouse Ab, 30B8 captured, CSL451 Sclamp antigen in solution, 1:1 binding; density 13 RU
[6] = substrate: S clamp antigen from CSL451 GMP batch TC20-02-08 (sublot VS20200615A) (SARS-CoV-2) (UniProt P0DTC2); experiment: kinetics on CM5 chip: anti-mouse Ab, 30B8 captured, CSL451 Sclamp antigen in solution, 1:1 binding; density 20 RU, table row 3
[7] = substrate: S clamp antigen from CSL451 GMP batch TC20-02-08 (sublot VS20200615A) (SARS-CoV-2) (UniProt P0DTC2); experiment: kinetics on CM5 chip: anti-mouse Ab, 30B8 captured, CSL451 Sclamp antigen in solution, 1:1 binding; density 20 RU, table row 4
[8] = substrate: S clamp antigen from CSL451 GMP batch TC20-02-08 (sublot VS20200615A) (SARS-CoV-2) (UniProt P0DTC2); experiment: kinetics on CM5 chip: anti-mouse Ab, 30B8 captured, CSL451 Sclamp antigen in solution, 1:1 binding; density 40 RU, table row 1
[9] = substrate: S clamp antigen from CSL451 GMP batch TC20-02-08 (sublot VS20200615A) (SARS-CoV-2) (UniProt P0DTC2); experiment: kinetics on CM5 chip: anti-mouse Ab, 30B8 captured, CSL451 Sclamp antigen in solution, 1:1 binding; density 40 RU, table row 2
[10] = substrate: S clamp antigen from CSL451 GMP batch TC20-02-08 (sublot VS20200615A) (SARS-CoV-2) (UniProt P0DTC2); experiment: kinetics on CM5 chip: anti-mouse Ab, 30B8 captured, CSL451 Sclamp antigen in solution, 1:1 binding; MEAN ± SEM of the eight runs
[11] = substrate: S clamp antigen from CSL451 GMP batch TC20-02-08 (sublot VS20200615A) (SARS-CoV-2) (UniProt P0DTC2); experiment: homologous 30B8 capture/detection EIA; CSL451 DP held 1 h at room temperature (control), pre-treated with 0.125% Zwittergent 3 h at 37 C, antigen titrated

B1: antibody 30B8 (antibody, V domains shown)
VH: EVQLQQSGAELVKPGASVKLSCTASGFNIKDTYIHWVKQRPEQGLEWIGRIDPANGNTKYDPKFQGKATITADTSSNTAYLQLSSLTSEDTAVCYCAGSLYDYDGAPFAYWGQGTLVTVSA
VL: SIVMTQTPKFLLVSAGDRVTITCKASQSVTNDVTWYQQKPGQSPKLLIYYASNRYTGVPDRFTGSGYGTDFTFTISTVQAEDLAVYFCQQDYSSPWTFGGGTKLEIK
- Kd [1]: 0.015 nM
- Kd [2]: 0.013 nM
- koff [2]: 3.11e-05 s⁻¹
- kon [2]: 2.39e+06 M⁻¹ s⁻¹
- Kd [3]: 0.0131 nM
- koff [3]: 3.06e-05 s⁻¹
- kon [3]: 2.33e+06 M⁻¹ s⁻¹
- Kd [4]: 0.0171 nM
- koff [4]: 3.96e-05 s⁻¹
- kon [4]: 2.31e+06 M⁻¹ s⁻¹
- Kd [5]: 0.0171 nM
- koff [5]: 3.98e-05 s⁻¹
- kon [5]: 2.33e+06 M⁻¹ s⁻¹
- Kd [6]: 0.0155 nM
- koff [6]: 3.66e-05 s⁻¹
- kon [6]: 2.37e+06 M⁻¹ s⁻¹
- Kd [7]: 0.0152 nM
- koff [7]: 3.68e-05 s⁻¹
- kon [7]: 2.42e+06 M⁻¹ s⁻¹
- Kd [8]: 0.0159 nM
- koff [8]: 3.76e-05 s⁻¹
- kon [8]: 2.36e+06 M⁻¹ s⁻¹
- Kd [9]: 0.0138 nM
- koff [9]: 3.25e-05 s⁻¹
- kon [9]: 2.35e+06 M⁻¹ s⁻¹
- Kd [10]: 0.0151 nM
- EC50 (read off the curve) [11]: 0.7 µg/mL
